Data reported in patent US20130344089A1.

Experiments:
[1] = biological target: Aβ42 A21C/A30C (Aβ42-CC) monomers (UniProt P05067); assay: direct ELISA, Aβ42-CC monomers coated at pH 10.4 with 10 mM TCEP (reduced form)
[2] = biological target: Aβ42 A21C/A30C (Aβ42-CC) monomers (UniProt P05067); assay: direct ELISA, Aβ42-CC monomers coated at pH 10.4
[3] = biological target: Aβ42 A21C/A30C (Aβ42-CC) monomers (UniProt P05067); assay: direct ELISA, Aβ42-CC monomers coated at pH 7.4

Work on “monoclonal antibody 6E10 (Covance Research Products)” yielded a total Ig titer (log10) [1] of 2.1 log10 titer, a total Ig titer (log10) [2] of 2 log10 titer and a total Ig titer (log10) [3] of 2.1 log10 titer.
